Like-named read-outs stand apart in the source and are kept apart here.
Key:
[1] = biological target: T1, B7.1/Ig fusion protein (human, UniProt P33681 35-242, limits assumed); test: Scatchard analysis, binding to B7-Ig coated plates
T1 construct: Secreted by CHO cells; also called B7-Ig; 125I-B7.1Ig; not shown: human immunoglobulin CH2 and CH3
T1 sequence (looked up): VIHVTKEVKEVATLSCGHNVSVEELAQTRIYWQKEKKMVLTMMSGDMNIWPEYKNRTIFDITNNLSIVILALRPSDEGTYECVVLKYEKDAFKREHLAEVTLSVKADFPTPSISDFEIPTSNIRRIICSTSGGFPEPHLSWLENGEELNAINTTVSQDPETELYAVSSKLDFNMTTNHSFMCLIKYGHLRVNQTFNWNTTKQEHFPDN

[2] = biological target: T1, B7.1/Ig fusion protein; test: Scatchard analysis, binding to B7-Ig coated plates; remark: listed apart in the source

- Kd [1]: ~10.7 nM
- Kd [2]: ~10.7 nM
B1: monkey monoclonal antibody 7B6 (antibody, V domains shown)
VH: EVQLVESGGGLVQPGGSLRVSCAVSGFTFSDHYMYWFRQAPGKGPEWVGFIRNKPNGGTTEYAASVKDRFTISRDDSKSIAYLQMSSLKIEDTAVYYCTTSYISHCRGGVCYGGYFEFWGQGALVTVSS
VL: EVVMTQSPLSLPITPGEPASISCRSSQSLKHSNGDTFLSWYQQKPGQPPRLLIYKVSNRDSGVPDRFSGSGAGTDFTLKISAVEAEDVGVYFCGQGTRTPPTFGGGTKVEIK

— EP1007090B1 (Biogen Idec Inc., dated 2009)
